The values that follow come from patent US20080300210A1.

The target of this experiment is cell receptor(s) in the thrips midgut (Frankliniella occidentalis). As to the kind of experiment: cell-based or functional assay.

“GN-S, soluble version of the Tomato spotted wilt virus (TSWV) GN envelope/membrane glycoprotein (from UniProt P36291 35-309)” came in with a percent of transmitting adults (thrips given an acquisition access period on GN-S mixed with purified TSWV) of 8 fold and a proportion of thrips infected with virus (real time RT-PCR, insects pre-exposed to GN-S then fed on TSWV-infected plant material) of 3 fold.
